Data: patent publication US20030157644A1 (MOUNT SINAI SCHOOL OF MEDICINE OF THE CITY UNIVERSITY OF …, published 2003)
Ends that are not written are not given here.

Legend:
[1] = target: T1, phospholipase C-β2 (human, UniProt Q00722 1-1185, Cascade Blue acetyl azide label on amines, labelling ratio 1:1 (FRET experiment only)); test: fluorescence resonance energy transfer, DABMI-peptide and Cascade Blue-PLC-β2, with and without phospholipids
T1 construct: Recombinant; Cytosolic fraction of baculovirus-infected High 5 cells in the activity assays; purified from Sf9 cells and labelled with Cascade Blue for FRET; also called PLC-β2; CB-PLC-β2
T1 sequence (Q00722 other isoform, or with tags, fused parts or gaps limits assumed): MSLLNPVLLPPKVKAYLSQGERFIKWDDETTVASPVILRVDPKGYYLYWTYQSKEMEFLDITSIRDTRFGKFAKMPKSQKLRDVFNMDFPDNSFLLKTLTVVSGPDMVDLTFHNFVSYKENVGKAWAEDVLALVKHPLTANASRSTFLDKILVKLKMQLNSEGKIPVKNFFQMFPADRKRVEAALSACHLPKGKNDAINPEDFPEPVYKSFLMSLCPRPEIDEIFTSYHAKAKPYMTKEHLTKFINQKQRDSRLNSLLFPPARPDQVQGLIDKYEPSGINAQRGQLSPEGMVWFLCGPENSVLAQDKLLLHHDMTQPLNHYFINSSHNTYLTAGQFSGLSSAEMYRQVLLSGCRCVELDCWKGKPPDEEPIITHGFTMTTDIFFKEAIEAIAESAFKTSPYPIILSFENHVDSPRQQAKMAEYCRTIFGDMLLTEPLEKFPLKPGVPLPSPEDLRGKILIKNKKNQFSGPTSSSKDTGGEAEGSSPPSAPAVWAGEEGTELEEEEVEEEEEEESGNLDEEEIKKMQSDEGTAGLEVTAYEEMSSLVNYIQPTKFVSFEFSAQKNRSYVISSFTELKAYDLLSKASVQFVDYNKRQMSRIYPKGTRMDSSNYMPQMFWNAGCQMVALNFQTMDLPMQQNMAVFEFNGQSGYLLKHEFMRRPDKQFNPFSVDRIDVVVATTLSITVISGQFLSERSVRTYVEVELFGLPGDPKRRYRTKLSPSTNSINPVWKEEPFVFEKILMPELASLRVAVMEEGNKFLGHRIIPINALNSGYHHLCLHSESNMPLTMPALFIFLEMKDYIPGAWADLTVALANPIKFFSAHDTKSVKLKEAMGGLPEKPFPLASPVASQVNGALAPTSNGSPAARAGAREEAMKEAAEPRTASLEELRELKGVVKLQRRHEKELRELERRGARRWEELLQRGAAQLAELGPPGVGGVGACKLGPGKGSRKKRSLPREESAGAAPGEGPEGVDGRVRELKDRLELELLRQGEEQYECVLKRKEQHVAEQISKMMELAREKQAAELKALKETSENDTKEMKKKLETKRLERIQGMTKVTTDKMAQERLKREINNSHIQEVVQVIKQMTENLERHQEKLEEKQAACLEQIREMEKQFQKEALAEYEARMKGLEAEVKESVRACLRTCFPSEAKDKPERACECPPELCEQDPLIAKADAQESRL
Experimental: The reaction was allowed to proceed for 30 minutes at room temperature before quenching with 5 mM DTT. The final labeling ratios, as determined by absorption, were 1:1 for CB-PLC-β2 and 0.8 for the two DABMI-peptides. Fluorescence spectra were taken on an ISS-PC7 (ISS Champaign, IL) photon counting spectrofluorometer using a 3×3 mm cuvette and exciting at 380 nm and scanning from 400-560 nm.
The stimulation by maximal concentration of peptide was non-additive with Gβγ stimulation (FIG. 5A, upper panel).

[2] = target: T1, phospholipase C-β2; test: cell-based or functional assay

Binder | binding result [1] | fold change in affinity of PLC-β2 stimulation against the Gβ 86-105 peptide [2] [fold]
TTNKVHAIPLRSSWVNTCAY (also: DABMI maleimide label in FRET experiment, residue not given here, Synthetic peptide; also called m-TTN) [Gβ 86-105 M101N substituted peptide] | no binding | –
TTNKVHAIPLRRRWVMTCAY [S97,98R Gβ 86-105 peptide] | – | 5
TTNKVHAIPLRSAWVMTCAY (not fully specified) [Gβ 86-105 peptide with S98 substituted with alanine] | – | ~2
